Data: patent US20210395718A1, “NOVEL KETOSE 3-EPIMERASE” (NATIONAL UNIVERSITY CORPORATION KAGAWA UNIVERSITY, priority 2018, published 2021)
Changes are numbered by the printed parent chain. One block for each molecule: values may come before it.

Tests used:
[1] = test system: ketose 3-epimerase (present enzyme, purified enzyme of wild strain); experiment: Substrate specificity of ketose 3-epimerase using 8 kinds of ketohexoses; format: biochemical, Arthrobacter histidinolovorans Y586-1 strain; settings: each substrate 0.1 M, phosphate buffer pH 8.0, 70° C., 10 min; epimerization activity for D-allulose = 100
Experimental: The substrate specificity of the present enzyme after purification was investigated using 8 kinds of ketohexoses. […] After a reaction at 70° C. for 10 minutes, the reaction mixture was analyzed by HPLC to measure a ketose produced by epimerization of each sugar.
Supposing that the epimerization activity for D-allulose is 100, the activity for each ketose is shown as a relative activity.

[2] = Thermal stability: residual activity after incubation at 60° C. for one hour; format: biochemical; settings: crude recombinant enzyme; for Residual activity (%): after incubation at 60° C. for 1 hour
Experimental: Thermal stability of the enzyme was investigated by measuring the activity of the enzyme after incubation at 60° C. for one hour and finding its relative activity supposing that the activity at 60° C. under the reaction conditions (10 minutes) used for determining the optimum temperature in the above 2 shown in Table 2 was 100. As heat treatment conditions, the crude enzyme solution, a buffer (50 mM tris-HCl, pH 7.5), and 2 mM MgCl2 were used to give a total amount of 200 p1 and after retaining at 60° C. for one hour, the reaction mixture was cooled for 10 minutes in ice water. The residual enzyme activity was then measured by the conventional method.
The activity of each of the present enzyme (crude recombinant enzyme) and the crude enzyme of the control enzyme after incubation at 60° C. for 1 hour was measured and a relative activity of it was determined supposing that the activity at 60° C. under the reaction conditions (10 minutes) for determining the optimum temperature in the above 2 shown in Table 2 is 100. The relative activity was used as a heat resistance index of the enzyme. As heat treatment conditions, the crude enzyme solution, a buffer (50 mM tris-HCl, pH 7.5), and 2 mM MgCl2 were used to give a total amount of 200 p1 and after retaining at 60° C. for one hour, the reaction mixture was cooled for 10 minutes in ice water. The residual enzyme activity was measured by the conventional method.

[3] = Ketose 3-epimerase activity ratio (T70/T50) at reaction temperature of 70° C. to 50° C.; format: biochemical; settings: crude recombinant enzyme; ratio of activity at 70° C. to activity at 50° C., 10 min reaction
Experimental: An enzyme having higher heat resistance than an amino acid substitution-free wild type enzyme can be obtained by introducing mutation into the gene of the ketose 3-epimerase of the present invention and substituting the corresponding amino acid residue with another amino acid residue by a site-directed mutagenesis operation to prepare various amino acid-substituted mutants. The heat resistance is evaluated by two indices, that is, a ketose 3-epimerase activity ratio (T70/T50) at the reaction temperatures of 70° C. to 50° C. and a residual activity after incubation at 60° C. for one hour.
Heat resistance of the present enzyme (crude recombinant enzyme) and the crude enzyme of the control enzyme was investigated by measuring an activity at 70° C. and an activity at 50° C. under the reaction conditions (10 minutes) used for determining the optimum temperature in the above 2 shown in Table 2 and finding their ratio (T70/T50).

[4] = Optimum reaction temperature / relative activity at various reaction temperatures; format: biochemical; settings: crude recombinant enzyme
Experimental: (§1) For the measurement of the activity of a ketose 3-epimerase as a crude enzyme and a purified enzyme, an enzyme reaction was made by performing an experiment similar to Experiment 4. An enzyme reaction was made for 10 minutes under various conditions and an enzyme amount preparing 1 μmol of D-fructose from D-allulose per minute was defined as 1 unit. After the reaction, the reaction mixture was put in a boiling liquid for 3 minutes to terminate the reaction. After deionization treatment, the D-fructose thus prepared was measured by HPLC analysis.
Reaction conditions are shown in Table 1 under which the reaction was made at various temperatures within from 50 to 80° C. to find an optimum temperature.

[5] = Ketose 3-epimerase activity of crude enzyme (D-allulose to D-fructose, HPLC); format: biochemical; settings: crude recombinant enzyme
Experimental: The activity of an enzyme ketose 3-epimerase before purification was obtained by measuring the preparation amount of D-fructose with D-allulose as a substrate. More specifically, an enzymatic reaction solution composed of a 50 mM tris-HCl buffer (pH 7.5), 0.1 M D-allulose, an enzyme solution, and 2 mM magnesium chloride is reacted at 70° C. for 10 minutes. The reaction mixture is boiled for 2 minutes to terminate the reaction and the solution composition after the reaction is measured by HPLC. One unit of enzyme activity is defined as an enzyme amount that epimerizes D-allulose to prepare 1 μmol of D-fructose per minute under the above-described conditions. An enzyme unit for epimerization of D-fructose into D-allulose, which is a reverse reaction, is also measured under similar conditions and defined similarly.
as §1, with “analysis. […]” for “analysis.”

[6] = activity at optimum temperature = 100

Molecule: O=C(CO)[C@H](O)[C@H](O)[C@H](O)CO [D-allulose]
Relative activity (%) [1]: 100.0%

Molecule: O=C(CO)[C@@H](O)[C@H](O)[C@H](O)CO [D-fructose]
Relative activity (%) [1]: 43.4%

Relative activity (%) [1]: trace
Molecule: O=C(CO)[C@H](O)[C@@H](O)[C@H](O)CO [D-sorbose]

Molecule: O=C(CO)[C@@H](O)[C@@H](O)[C@H](O)CO [D-tagatose]
Relative activity (%) [1]: 72.2%

Molecule: O=C(CO)[C@@H](O)[C@@H](O)[C@@H](O)CO [L-allulose]
Relative activity (%) [1]: 27.1%

Relative activity (%) [1]: trace
Molecule: O=C(CO)[C@H](O)[C@@H](O)[C@@H](O)CO [L-fructose]

Relative activity (%) [1]: trace
Molecule: O=C(CO)[C@@H](O)[C@H](O)[C@@H](O)CO [L-sorbose]

Molecule: O=C(CO)[C@H](O)[C@H](O)[C@@H](O)CO [L-tagatose]
Relative activity (%) [1]: 59.2%

B1: Ketose 3-epimerase mutant 3: amino acid-substituted mutant of SEQ ID NO: 1 (protein)
chain: MKIGCHGLVWTGRFDAEGIRYSVQKTKEAGFDLIEFPLMDPFSFDVATAKSALAEHGLTASASLGLSEATDVSSEDPAIVKAGEELLNRALDVLAELGATEFCGVIYSAMKKYMEPATEQGLSNSKAAIGRVVDRAAGLGINVSLEVVNRYETNVLNTGRQALSYLSDVKRPNLGVHLDTYHMNIEESDMFSPVLDTAEVLKYVHIGESHRGYLGTGSVDFDNFFKALGRIGYDGPVVFESFSSAVVAPDLSRMLGIWRNLWADNEELGAHANAFIRDKLTAIKTIELH
modifications: Arthrobacter histidinolovorans
Residual activity (%) [2]: 94.5%
T70/T50 [3]: 2.11

B2: Ketose 3-epimerase mutant 5: amino acid-substituted mutant of SEQ ID NO: 1 (protein)
chain: B1 chain with T59S, A60V, E101D
modifications: Arthrobacter histidinolovorans
Residual activity (%) [2]: 85.1%
T70/T50 [3]: 2.07

B3: Ketose 3-epimerase mutant 6: amino acid-substituted mutant of SEQ ID NO: 1 (protein)
chain: B1 chain with E101D, I129V, V200A, S218N
modifications: Arthrobacter histidinolovorans
Residual activity (%) [2]: 101.2%
T70/T50 [3]: 2.05

B4: Ketose 3-epimerase mutant 4: amino acid-substituted mutant of SEQ ID NO: 1 (protein)
chain: B1 chain with T59S, A60V, E101D, I129V, S218N
modifications: Arthrobacter histidinolovorans
Residual activity (%) [2]: 123.2%
T70/T50 [3]: 2.08

Optimum enzyme reaction temperature ([4]; 10 min, 2 mM magnesium chloride, pH 7.5): 70° ° C.
Total activity per 100 mL of culture liquid (optimum reaction temperature) [5]: 1201 U
B5: Mutant enzyme Sequence information 3: mutant having Sequence 3 (SEQ ID NO: 3), 78.5% amino acid sequence identity to Sequence 1 (protein)
chain: MNIGCHGLVWTGTFDADGIRLAVEKTKQAGFDLIEFPLMDPFSFDVAAAQAALAEHGLAVSASLGLSDETDITSSDPAVVAAGEALLLRAVDVLAELGGTHFCGVIYSAMKKYMDPVTPEGLASSRRTIARVADHAAERGVSVSLEVVNRYETNVLNTARQALAYLGEVDRPNLGIHLDTYHMNIEESDMFAPVLDAAPALRYVHIGESHRGYLGTGTVDFDTFFKALGRIGYDGPIVFESFSSAVVAPDLSRMLGIWRNLWTDNDELGAHANAYIRDKLVAVDSIRLH
Relative activity at 60° C. (%) [4, 6]: 75.8%
Relative activity at 70° C. (%) [4, 6]: 100.0%
Relative activity at 80° C. (%) [4, 6]: 31.2%
Residual activity after incubation at 60° C. for 1 hour ([2]; activity at 60° C. (10 min reaction) = 100, unit not given): 38.2
T70/T50 [3]: 2.11
